Data published in patent publication US20130129739A1 (Bayer, published 2013).
Values joined by “and” are separate entries in the source; they are usually repeats but may differ in a detail not shown here. Equal entries are not always repeated.

T1: human prolactin receptor (PRLR) on cells (human, UniProt P16471 25-622)
T1 construct: whole, on cells; also called human PRLR; hPRLR
T1 sequence (looked up): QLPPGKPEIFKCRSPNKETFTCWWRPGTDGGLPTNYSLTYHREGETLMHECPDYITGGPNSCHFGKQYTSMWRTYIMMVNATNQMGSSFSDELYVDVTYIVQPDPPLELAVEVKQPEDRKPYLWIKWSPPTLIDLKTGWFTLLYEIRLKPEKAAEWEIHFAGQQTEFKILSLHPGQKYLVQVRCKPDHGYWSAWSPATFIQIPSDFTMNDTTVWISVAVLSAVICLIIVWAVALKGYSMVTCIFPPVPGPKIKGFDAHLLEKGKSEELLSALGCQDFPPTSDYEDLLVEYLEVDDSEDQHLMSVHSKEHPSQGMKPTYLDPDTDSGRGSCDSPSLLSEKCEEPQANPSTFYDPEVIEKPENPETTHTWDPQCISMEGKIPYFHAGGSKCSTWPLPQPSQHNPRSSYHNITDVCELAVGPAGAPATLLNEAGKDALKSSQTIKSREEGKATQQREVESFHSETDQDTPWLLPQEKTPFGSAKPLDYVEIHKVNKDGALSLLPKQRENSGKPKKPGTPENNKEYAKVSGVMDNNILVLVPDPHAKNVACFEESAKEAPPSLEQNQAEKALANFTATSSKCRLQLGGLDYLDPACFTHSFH

T2: murine prolactin receptor (PRLR) on cells (mouse, UniProt Q08501 20-608)
T2 sequence (looked up): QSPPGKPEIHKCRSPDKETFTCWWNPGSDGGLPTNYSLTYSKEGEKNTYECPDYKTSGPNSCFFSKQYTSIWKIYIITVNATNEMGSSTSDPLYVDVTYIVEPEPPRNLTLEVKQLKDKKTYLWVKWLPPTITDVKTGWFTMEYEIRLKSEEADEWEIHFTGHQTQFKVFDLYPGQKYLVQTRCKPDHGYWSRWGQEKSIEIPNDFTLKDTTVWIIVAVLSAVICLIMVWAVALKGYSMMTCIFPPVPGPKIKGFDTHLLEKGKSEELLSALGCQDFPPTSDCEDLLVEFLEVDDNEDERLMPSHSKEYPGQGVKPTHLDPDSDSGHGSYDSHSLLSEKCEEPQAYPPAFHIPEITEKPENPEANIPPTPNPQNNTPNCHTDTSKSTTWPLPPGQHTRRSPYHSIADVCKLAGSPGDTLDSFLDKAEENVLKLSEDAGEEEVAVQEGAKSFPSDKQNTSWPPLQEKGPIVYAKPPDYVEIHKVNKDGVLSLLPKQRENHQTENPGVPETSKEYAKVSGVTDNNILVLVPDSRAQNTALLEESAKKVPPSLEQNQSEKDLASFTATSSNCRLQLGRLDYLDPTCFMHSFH

T3: extracellular domain of human PRLR (monomeric, soluble) (human, UniProt P16471 25-234)
T3 construct: also called ECD-PRLR; ECD of PRLR
T3 sequence: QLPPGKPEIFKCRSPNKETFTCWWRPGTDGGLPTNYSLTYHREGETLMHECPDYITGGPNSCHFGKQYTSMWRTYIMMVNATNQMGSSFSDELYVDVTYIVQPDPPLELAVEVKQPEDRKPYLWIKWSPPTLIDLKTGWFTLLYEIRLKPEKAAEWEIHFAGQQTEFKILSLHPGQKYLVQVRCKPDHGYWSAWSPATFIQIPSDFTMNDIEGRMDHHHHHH

T4: rat prolactin receptor (PRLR) on Nb2 lymphoma cells (rat, UniProt P05710 20-610)
T4 construct: whole, on cells; also called rat PRLR
T4 sequence (looked up): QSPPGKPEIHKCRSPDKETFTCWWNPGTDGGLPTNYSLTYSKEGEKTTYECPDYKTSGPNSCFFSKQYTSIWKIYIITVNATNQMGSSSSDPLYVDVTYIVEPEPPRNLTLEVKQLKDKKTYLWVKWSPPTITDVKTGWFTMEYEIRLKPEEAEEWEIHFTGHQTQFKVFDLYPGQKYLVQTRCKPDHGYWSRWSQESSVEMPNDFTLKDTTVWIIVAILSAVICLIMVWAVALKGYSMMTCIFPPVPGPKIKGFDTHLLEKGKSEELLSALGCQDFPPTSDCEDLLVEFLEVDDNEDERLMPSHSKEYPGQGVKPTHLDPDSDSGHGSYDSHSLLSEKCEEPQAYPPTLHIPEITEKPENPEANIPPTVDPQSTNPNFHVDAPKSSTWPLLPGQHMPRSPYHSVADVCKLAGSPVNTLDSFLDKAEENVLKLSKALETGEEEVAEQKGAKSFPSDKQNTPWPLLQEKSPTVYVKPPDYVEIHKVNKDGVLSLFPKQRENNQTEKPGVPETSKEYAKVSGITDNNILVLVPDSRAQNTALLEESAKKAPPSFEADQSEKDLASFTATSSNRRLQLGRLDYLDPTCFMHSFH


Legend:
[1] = molecular target: T1, human prolactin receptor (PRLR) on cells; test: FACS on human breast cancer cell line T47D, IgG1
[2] = molecular target: T2, murine prolactin receptor (PRLR) on …; test: cell-based or functional assay
[3] = molecular target: T1, human prolactin receptor (PRLR) on cells; test: cell-based or functional assay
[4] = molecular target: T3, extracellular domain of human PRLR …; test: SPR (Biacore), IgG1 directly immobilized, monomeric human PRLR ECD from HEK293 as analyte
[5] = molecular target: T2, murine prolactin receptor (PRLR) on …; test: flow cytometry on HEK293 cells stably expressing murine PRLR, PE anti-human IgG, fixed 0.37 µg/ml IgG
Experimental: In order to determine the binding characteristics of the anti-PRLR antibodies on mouse and human PRLR expressed on cells, binding was tested by flow cytometry on HEK293 cells stably expressing the human and murine PRLR, respectively. The cells as well as the parental HEK293 cell line without PRLR were harvested, centrifuged and resuspended at approximately 5×10⁶ cells/ml in 1×PBS containing 2% FBS and 0.1% sodium azide (FACS buffer). The antibodies 005-C04, 001-E06 and HE06.642 were diluted to 2-fold final concentration in FACS buffer and added to appropriate sample wells (50 μl/well). For secondary antibody and autofluorescence controls, 50 μl FACS buffer was added to appropriate wells. 50 μl of cell suspension was added to each sample well. Samples were incubated at 4° C. for one hour, washed twice with cold FACS buffer and resuspended in FACS buffer containing PE-conjugated goat anti-human IgG at a 1:100 dilution. Following a 30 min incubation at 4° C., cells were washed twice with cold FACS buffer, resuspended in FACS buffer containing […] propidium iodide (Invitrogen, San Diego, Calif.) and analyzed by flow cytometry. […] This observation is consistent with the finding reported in example 9 about the missing efficacy of HE06.642 in the murine PRLR-dependent luciferase reporter gene assay. […]

[6] = molecular target: T4, rat prolactin receptor (PRLR) on Nb2 …; test: FACS on rat lymphoma cell line Nb2, IgG1
[7] = molecular target: T4, rat prolactin receptor (PRLR) on Nb2 …; test: cell-based or functional assay

| EC50 [1] [nM] | IC50, inhibition of prolactin-activated Ba/F cell proliferation (murine PRLR) [2] | IC50, inhibition of prolactin-activated Ba/F cell proliferation (human PRLR) [3] | IC50, prolactin-activated luciferase reporter gene activity, HEK293 cells with hPRLR [3] | Kd [4] [nM] | koff [4] [s⁻¹] | binding result [5] | EC50 [6] [nM] | IC50, prolactin-activated luciferase reporter gene activity, HEK293 cells with mPRLR [2] | IC50, inhibition of prolactin-induced rat lymphoma cell proliferation (NB2 cells) [7] | Binder |
| --- | --- | --- | --- | --- | --- | --- | --- | --- | --- | --- |
| 1.8 | > 30 mg/ml and > 200 nM | 0.34 µg/ml and 2.2 nM | 0.63 mg/ml and 4.2 nM | 0.3 | 0.00032 | no binding (tested: 0.37 µg/ml) | 0.9 | – | – | HE06.642 (antibody, V domains shown, Human Engineered Novartis antibody (WO2008/022295); tested as human IgG1) VH: EVQLVESGGGLVQPGGSLRLSCAVSGFTFSSYGMSWVRQAPGKGLEWVATVSSGGTYTYYPDSVKGRFTISRDNSKNTLYLQMNSLRAEDTAVYYCARHRGNYYATYYYAMDYWGQGTLVTVSS VL: DIVLTQSPDSLAVSLGERATINCKASKSVSTSGYTYMHWYQQKPGQPPKLLIYLASNRESGVPDRFSGSGSGTDFTLTISPVQAEDVATYYCQHSGELPPSFGQGTKLEIKR |
| 1.5 | – | – | – | 1.2 | 0.00013 | – | 1.1 | > 50 mg/ml and > 333 nM | 10 µg/ml and 67 nM | XHA06.642 (antibody, V domains shown, Novartis antibody (WO2008/022295)) VH: EVQLVESGGDLVKPGGSLKLSCAVSGFTFSSYGMSWVRQTPDKRLEWVATVSSGGTYTYYPDSVKGRFTISRDNAKNTLYLQMSSLKSEDSAMYYCARHRGNYYATYYYAMDYWGQGTSVTVSS VL: DIVLTQSPASLAVSLGQGATISCRASKSVSTSGYTYMHWYQQKPGQPPKLLIYLASNLESGVPARFSGSGSGTDFTLNIHPVEEEDAATYYCQHSGELPPSFGGGTKLEIKR |
